Measurements: patent US20230265198A1 (TWIST BIOSCIENCE, published 2023)
Residue numbers refer to the chain shown, from its start.

B1: NRP1-57 (VHH)
VHH: EVQLVESGGGLVQPGGSLRLSCAASGFTFSNSGMGWFRQAPGKERELVARITRGGRTYADSVKGRFTISADNSKNTAYLQMNSLKPEDTAVYYCAARRIVNVEGAYRDWGQGTLVTVSS
B2: NRP1-24 (VHH)
VHH: EVQLVESGGGLVQPGGSLRLSCAASGFKFNDSYMGWFRQAPGKEREFVATIWWTFDAPYYADSVKGRFTISADNSKNTAYLQMNSLKPEDTAVYYCAVKERSTGWDFAWGQGTLVTVSS
B3: NRP1-39 (VHH)
VHH: EVQLVESGGGLVQPGGSLRLSCAASGRTFSGDVMGWFRQAPGKEREFVAAINYSGRSINYADSVKGRFTISADNSKNTAYLQMNSLKPEDTAVYYCARETLWLKRYWGQGTLVTVSS
B4: NRP1-289 (antibody, IgG2, V domains shown)
VH: EVQLLESGGGLVQPGGSLRLSCAASGFTISSSAMGWVRQAPGKGLEWVSALSGSGGSKYYADSVKGRFTISRDNSKNTLYLQMNSLRAEDTAVYYCAKEALPRASRRAAAVRYFHHWGQGTLVTVSS
VL: DIQMTQSPSSLSASVGDRVTITCRASQNIVRYLNWYQQKPGKAPKLLIYTASNLQTGVPSRFSGSGSGTDFTLTISSLQPEDFATYYCQESYSRTFGGGTKVEIK
B5: NRP1-3 (VHH)
VHH: EVQLVESGGGLVQPGGSLRLSCAASGEPTFSSVAMGWFRQAPGKEREWVAEIYPSGSTVYADSVKGRFTISADNSKNTAYLQMNSLKPEDTAVYYCAKTNWNDWGAFDIWGQGTLVTVSS
B6: NRP1-36 (VHH)
VHH: EVQLVESGGGLVQPGGSLRLSCAASGFPVNRYSMGWFRQAPGKEREFVATITVGGSTYYADSVKGRFTISADNSKNTAYLQMNSLKPEDTAVYYCARQFGAWLGEVVGPMDVWGQGTLVTVSS
B7: NRP1-42 (VHH)
VHH: EVQLVESGGGLVQPGGSLRLSCAASGRTISNYDMGWFRQAPGKEREWVASINWGDGNTYYADSVKGRFTISADNSKNTAYLQMNSLKPEDTAVYYCARAPTYYYDSSGYYYAYWGQGTLVTVSS
B8: NRP1-20 (VHH)
VHH: EVQLVESGGGLVQPGGSLRLSCAASGSTFSLFAMGWFRQAPGKEREFVAAISRSGGLTSYADSVKGRFTISADNSKNTAYLQMNSLKPEDTAVYYCAKAAGDWTYDEDYYYMDVWGQGTLVTVSS
B9: NRP1-21 (VHH)
VHH: EVQLVESGGGLVQPGGSLRLSCAASGRSRYGMGWFRQAPGKEREFVAAITRSGKTTYYADSVKGRFTISADNSKNTAYLQMNSLKPEDTAVYYCARRLLSGSPSRSYYFDYWGQGTLVTVSS
B10: NRP1-19 (VHH)
VHH: EVQLVESGGGLVQPGGSLRLSCAASGIAFRIRTMGWFRQAPGKEREFVAGISRSGASTAYADSVKGRFTISADNSKNTAYLQMNSLKPEDTAVYYCTTDRWYSSNWWGQGTLVTVSS
B11: NRP1-54 (VHH)
VHH: EVQLVESGGGLVQPGGSLRLSCAASGIAFRIRTMGWFRQAPGKEREFVAGISRSGASTAYADSVKGRFTISADNSKNTAYLQMNSLKPEDTAVYYCAARRIVNVEGAYRDWGQGTLVTVSS
B12: NRP1-30 (VHH)
VHH: EVQLVESGGGLVQPGGSLRLSCAASGRTLSSYNMGWFRQAPGKEREFVARIWPGGGTTYADSVKGRFTISADNSKNTAYLQMNSLKPEDTAVYYCARDYFGSGSYYDWGQGTLVTVSS
B13: NRP1-38 (VHH)
VHH: EVQLVESGGGLVQPGGSLRLSCAASGFTFGSTTMGWFRQAPGKEREFVATMRWSTGSTVYADSVKGRFTISADNSKNTAYLQMNSLKPEDTAVYYCAVRGDWWAYWTPWGQGTLVTVSS
B14: NRP1-55 (VHH)
VHH: EVQLVESGGGLVQPGGSLRLSCAASGFTLDYYVMGWFRQAPGKEREWVAFISGSGSKFYADSVKGRFTISADNSKNTAYLQMNSLKPEDTAVYYCVIQHFWSGYDDDYWGQGTLVTVSS
B15: NRP1-286 (antibody, IgG2, V domains shown)
VH: EVQLLESGGGLVQPGGSLRLSCAASGFTLSAYAMNWVRQAPGKGLEWVSSISGSGGATYYADSVKGRFTISRDNSKNTLYLQMNSLRAEDTAVYYCARVMKTTRRIVGRRLRKGDGLDVWGQGTLVTVSS
VL: DIQMTQSPSSLSASVGDRVTITCRASQSIRNNLSWYQQKPGKAPKLLIYAASSLQTGVPSRFSGSGSGTDFTLTISSLQPEDFATYYCQQSFTIPRTFGGGTKVEIK
B16: NRP1-287 (antibody, IgG2, V domains shown)
VH: EVQLLESGGGLVQPGGSLRLYCAASGFTFGSYGMSWVRQAPGKGLEWVSSISGSGGSTYYTDSVKGRFTISRDNSKNTLYLQMNSLRAEDTAVYYCARDLARGTMPRGVIIPHNWFDPWGQGTLVTVSS
VL: DIQMTQSPSSLSASVGDRVTITCRASQTISNYVNWYQQKPGKAPKLLIYAASSLHAGVPSRFSGSGSGTDFTLTISSLQPEDFATYYCQQGYSTPLTFGGGTKVEIK
B17: NRP1-299 (antibody, IgG2, V domains shown)
VH: EVQLLESGGGLVQPGGSLRLSCAASGFTFRRYAMSWVRQAPGKGLEWVATISGSGGSTYYADSVKGRFTISRDNSKNTLYLQMNSLRAEDTAVYYCARGGNGSNRRPSLLPRNRAAAIGFESAFDVWGQGTLVTVSS
VL: B16 VL with S30A, V33L, A50R, S53R, H55Q, A56S, G91S, S93N, L96Y
B18: NRP1-60 (VHH)
VHH: EVQLVESGGGLVQPGGSLRLSCAASGNIFINNAMGWFRQAPGKERELVAAISGRSGNTYYADSVKGRFTISADNSKNTAYLQMNSLKPEDTAVYYCAARRIVNVEGAYRDWGQGTLVTVSS
B19: NRP1-288 (antibody, IgG2, V domains shown)
VH: EVQLLESGGGLVQPGGSLRLSCAASGFTFSTFAMSWVRQAPGKGLEWVSTISGSGTSTYYADSVKGRFTISRDNSKNTLYLQMNSLRAEDTAVYYCARFPGDRGYYHYYMDVWGQGTLVTVSS
VL: DIQMTQSPSSLSASVGDRVTITCRASQSIARYLNWYQQKPGKAPKLLIYRASRLQSGVPSRFSGSGSGTDFALTISSLQPEDFATYYCQQSFSPPFTFGGGTKVEIK
B20: NRP1-290 (antibody, IgG2, V domains shown)
VH: EVQLLESGGGLVQPGGSLRLSCAASGFTFRNYAMTWVRQAPGKGLEWVSGISGSGGSTYYSDSVKGRFTISRDNSKNTLYLQMNSLRAEDTAVYYCARGRRGMPTPDTVRKMSKSHLYFDSWGQGTLVTVSS
VL: B19 VL with A25T, A30S, R50G, R53T, A72T, S91N, F92Y, S93I, P94I, F96W
B21: NRP1-292 (antibody, IgG2, V domains shown)
VH: EVQLLESGGGLVQPGGSLRLSCAASGFTLSSYAMAWVRQAPGKGLEWVSAIRGSGGTTYYADSVKGRFTISRDNSKNTLYLQMNSLRAEDTAVYYCARRGRAPRMVRGVVNRRPYYFDYWGQGTLVTVSS
VL: B19 VL with A25T, R31T, R50G, L54S, A72T, F92Y, S93F, P94T, F96P
B22: NRP1-28 (VHH)
VHH: EVQLVESGGGLVQPGGSLRLSCAASGFTRSYYTMGWFRQAPGKEREFVAAMNWSGSSTVYADSVKGRFTISADNSKNTAYLQMNSLKPEDTAVYYCAKDTGSPKNYYYYYGMDVWGQGTLVTVSS
B23: NRP1-40 (VHH)
VHH: EVQLVESGGGLVQPGGSLRLSCAASGSITSFNAMGWFRQAPGKERELVASINWSGARTLYADSVKGRFTISADNSKNTAYLQMNSLKPEDTAVYYCASARYYGSGRHFDYWGQGTLVTVSS
B24: NRP1-52 (VHH)
VHH: EVQLVESGGGLVQPGGSLRLSCAASGFTFSWYPMGWFRQAPGKEREFVAAISPSGSTDYADSVKGRFTISADNSKNTAYLQMNSLKPEDTAVYYCARDPNYDFWSGYYSSEHYFDYWGQGTLVTVSS
B25: NRP1-31 (VHH)
VHH: EVQLVESGGGLVQPGGSLRLSCAASGLTFRRYDMGWFRQAPGKERELVAIKFSGGSTRYADSVKGRFTISADNSKNTAYLQMNSLKPEDTAVYYCATSSGRVPAALNWGQGTLVTVSS
B26: NRP1-32 (VHH)
VHH: B25 VHH with K51I, S70I, S74N, T90N
B27: NRP1-26 (VHH)
VHH: EVQLVESGGGLVQPGGSLRLSCAASGRTFRPYRMGWFRQAPGKEREWISTIYSNGHTYYADSVKGRFTISADNSKNTAYLQMNSLKPEDTAVYYCAAQRRWSQDWGQGTLVTVSS
B28: NRP1-29 (VHH)
VHH: EVQLVESGGGLVQPGGSLRLSCAASGFTLDNYAMGWFRQAPGKEREFVARITSGGDTTYYADSVKGRFTISADNSKNTAYLQMNSLKPEDTAVYYCARAYGRGTYDWGQGTLVTVSS
B29: NRP1-56 (VHH)
VHH: EVQLVESGGGLVQPGGSLRLSCAASGRTFSSYRMGWFRQAPGKEREFVASIRSSGTTYADSVKGRFTISADNSKNTAYLQMNSLKPEDTAVYYCARDTLGRASSSTDWGQGTLVTVSS
B30: NRP1-34 (VHH)
VHH: EVQLVESGGGLVQPGGSLRLSCAASGYTYRKYCMGWFRQAPGKEREWVAAISRSGNLKSYADSVKGRFTISADNSKNTAYLQMNSLKPEDTAVYYCAIKRWPVDTRRRRDMVVGCPGRDEYEWGQGTLVTVSS

molecular target: T1, neuropilin-1 (NRP1) on HEK293 cells overexpressing NRP1 (UniProt O14786 22-923, limits assumed); test: flow cytometry, HEK293-NRP1 vs HEK293
T1 construct: whole, on cells

Point of comparison: B4, “100 nM FACS (MFI Ratio)” value 0.9. Against it:
- B1 — lower, 0.1
- B2 — higher, 6.4
- B3 — higher, 5.6
- B5 — higher, 13.4
- B6 — higher, 3
- B7 — higher, 4
- B8 — higher, 50.9
- B9 — higher, 1
- B10 — higher, 420
- B11 — lower, 0.6
- B12 — higher, 40.2
- B13 — higher, 10.5
- B14 — higher, 2.7
- B15 — higher, 1.4
- B16 — lower, 0.4
- B17 — higher, 2.5
- B18 — higher, 1
- B19 — higher, 3.9
- B20 — lower, 0.6
- B21 — lower, 0.4
- B22 — higher, 33
- B23 — higher, 16.7
- B24 — higher, 10.7
- B25 — higher, 5.7
- B26 — lower, 0.3
- B27 — the same, 0.9
- B28 — higher, 26
- B29 — higher, 5.4
- B30 — higher, 612
